Experimental data reported in the supplement of paper PMC10724198.
± gives the standard deviation of the averaged measurements.

Legend:
Saccharomyces cerevisiae [1] = experiment: protein stability index of tFT-peptide fusion (C-terminal peptide) (PSI (0-1 scale)); higher = more stable (slower turnover)
Description: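 MPS profiling in S. cerevisiae of the tFT-X12 degron library: putative degron peptides plus stable controls, 12 aa, fused to the C-terminus of a sfGFP-mCherry timer. Cells are FACS-sorted into 8 mCherry/sfGFP bins and deep-sequenced. PSI runs from 0 (unstable) to 1 (stable). Backgrounds are wild type, das1Δ and doa10Δ at 30 °C, and wild type, das1Δ, cdc34-1 and cdc53-1 at 37 °C; 2-3 technical replicates each.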

Saccharomyces cerevisiae [2] = experiment: as above; settings: genetic background: wild type; temperature: 30 C
[3] = genetic background: cdc34-1, temperature: 37 C
[4] = genetic background: cdc53-1, temperature: 37 C
[5] = genetic background: das1 deletion, temperature: 30 C
[6] = genetic background: das1 deletion, temperature: 37 C
[7] = genetic background: doa10 deletion, temperature: 30 C
[8] = genetic background: wild type, temperature: 30 C
[9] = genetic background: wild type, temperature: 37 C
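Also: PSI is a weighted mean of sequencing reads over stability bins, variants kept only with over 10 reads, mCherry proximal and sfGFP distal, peptide attached via GGGS linker.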

Sequence | protein stability index (Saccharomyces cerevisiae [1]; [3]) | protein stability index (Saccharomyces cerevisiae [1]; [4]) | protein stability index (Saccharomyces cerevisiae [1]; [5]) | protein stability index (Saccharomyces cerevisiae [1]; [6]) | protein stability index (Saccharomyces cerevisiae [1]; [7]) | protein stability index (Saccharomyces cerevisiae [1]; [8]) | protein stability index (Saccharomyces cerevisiae [1]; [9]) | protein stability index (Saccharomyces cerevisiae [2])
LSILLFVQFFPP | 0.317 ± 0.023 | 0.371 ± 0.0032 | 0.27 ± 0.021 | 0.4113 ± 0.00046 | 0.24 ± 0.0013 | 0.253 ± 0.012 | 0.384 ± 0.0082 | 0.305 ± 0.0053
CRGLSWRMITCL | 0.493 ± 0.035 | 0.59 ± 0.049 | 0.484 ± 0.016 | 0.6459 ± 0.00088 | 0.125 ± 0.011 | 0.14 ± 0.015 | 0.176 ± 0.02 | 0.225 ± 0.012
CPMFVKFFFCLY | 0.448 ± 0.027 | 0.462 ± 0.011 | 0.465 ± 0.036 | 0.508 ± 0.019 | 0.479 ± 0.013 | 0.41 ± 0.021 | 0.481 ± 0.0055 | 0.405 ± 0.024
VFLCVRLGFIFL | 0.419 ± 0.0062 | 0.486 ± 0.0065 | 0.359 ± 0.029 | 0.529 ± 0.012 | 0.404 ± 0.02 | 0.352 ± 0.023 | 0.471 ± 0.023 | 0.446 ± 0.026
FMVYRIHSSAVM | 0.127 ± 0.017 | 0.172 ± 0.014 | 0.251 ± 0.06 | 0.149 ± 0.006 | 0.265 ± 0.028 | 0.257 ± 0.038 | 0.14 ± 0.014 | 0.158 ± 0.0045
FILFSEMFASSV | 0.132 ± 0.021 | 0.175 ± 0.0083 | 0.265 ± 0.026 | 0.149 ± 0.02 | 0.28 ± 0.015 | 0.255 ± 0.028 | 0.137 ± 0.021 | 0.26 ± 0.0085
YILRLMMEGICL | 0.497 ± 0.012 | 0.545 ± 0.036 | 0.416 ± 0.033 | 0.48 ± 0.019 | 0.422 ± 0.038 | 0.409 ± 0.0083 | 0.464 ± 0.022 | 0.4198 ± 0.0029
CFFGFRAGLFLG | 0.507 ± 0.0082 | 0.7205 ± 0.0047 | 0.593 ± 0.018 | 0.754 ± 0.052 | 0.176 ± 0.002 | 0.155 ± 0.0076 | 0.247 ± 0.072 | 0.214 ± 0.016
GPHATYLYLVLA | 0.199 ± 0.022 | 0.258 ± 0.022 | 0.226 ± 0.039 | 0.34 ± 0.0059 | 0.1579 ± 0.00054 | 0.177 ± 0.018 | 0.22866 ± 0.00017 | 0.2383 ± 0.00092
CRRQLKVLKSMS | 0.581 ± 0.072 | 0.697 ± 0.025 | 0.653 ± 0.023 | 0.6892 ± 0.0061 | 0.148 ± 0.021 | 0.151 ± 0.03 | 0.31 ± 0.013 | 0.242 ± 0.039
SMGVLITYLVQV | 0.399 ± 0.021 | 0.461 ± 0.012 | 0.324 ± 0.024 | 0.51 ± 0.015 | 0.25 ± 0.007 | 0.288 ± 0.033 | 0.452 ± 0.0061 | 0.45 ± 0.04
VLILFFLVVFYV | 0.217 ± 0.015 | 0.294 ± 0.0088 | 0.267 ± 0.033 | 0.347 ± 0.018 | 0.2543 ± 0.0024 | 0.237 ± 0.021 | 0.3358 ± 0.0033 | 0.262 ± 0.037
SFLRVRSLISCS | 0.252 ± 0.026 | 0.257 ± 0.035 | 0.223 ± 0.025 | 0.404 ± 0.021 | 0.168 ± 0.0032 | 0.204 ± 0.026 | 0.348 ± 0.013 | 0.294 ± 0.022
LSSRGGRCRRLV | 0.714 ± 0.059 | 0.727 ± 0.028 | 0.652 ± 0.016 | 0.7555 ± 0.0039 | 0.321 ± 0.0092 | 0.37 ± 0.013 | 0.588 ± 0.017 | 0.481 ± 0.037
LGSYIFVVVIYF | 0.152 ± 0.011 | 0.228 ± 0.0032 | 0.168 ± 0.032 | 0.291 ± 0.0044 | 0.141 ± 0.0079 | 0.143 ± 0.033 | 0.253 ± 0.0056 | 0.283 ± 0.15
FLSLVIVLRWFL | 0.278 ± 0.048 | 0.303 ± 0.045 | 0.255 ± 0.022 | 0.381 ± 0.01 | 0.298 ± 0.021 | 0.242 ± 0.024 | 0.346 ± 0.02 | 0.347 ± 0.042
VLLFGLAFFFSF | 0.422 ± 0.058 | 0.4953 ± 0.0026 | 0.367 ± 0.053 | 0.537 ± 0.036 | 0.222 ± 0.013 | 0.241 ± 0.029 | 0.408 ± 0.033 | 0.371 ± 0.055
IACVLSIFLNAA | 0.325 ± 0.0071 | 0.435 ± 0.051 | 0.292 ± 0.039 | 0.435 ± 0.0047 | 0.2559 ± 0.0013 | 0.274 ± 0.031 | 0.436 ± 0.0094 | 0.44 ± 0.054
QVLISLYVHGYF | 0.551 ± 0.053 | 0.5374 ± 0.0037 | 0.453 ± 0.047 | 0.51 ± 0.017 | 0.388 ± 0.011 | 0.426 ± 0.02 | 0.519 ± 0.019 | 0.501 ± 0.008
KYKANLGNLKVH | 0.596 ± 0.067 | 0.7161 ± 0.0013 | 0.632 ± 0.019 | 0.725 ± 0.029 | 0.0824 ± 0.011 | 0.0914 ± 0.05 | 0.101 ± 0.0031 | 0.135 ± 0.056

Sequence | protein stability index (Saccharomyces cerevisiae [1]; [3]) | protein stability index (Saccharomyces cerevisiae [1]; [4]) | protein stability index (Saccharomyces cerevisiae [1]; [5]) | protein stability index (Saccharomyces cerevisiae [1]; [6]) | protein stability index (Saccharomyces cerevisiae [1]; [7]) | protein stability index (Saccharomyces cerevisiae [1]; [8]) | protein stability index (Saccharomyces cerevisiae [1]; [9]) | protein stability index (Saccharomyces cerevisiae [2])
FCIFAMQICTSA | 0.126 ± 0.013 | 0.173 ± 0.0037 | 0.112 ± 0.033 | 0.221 ± 0.0074 | 0.084 ± 0.015 | 0.108 ± 0.01 | 0.205 ± 0.015 | 0.18 ± 0.017
LCIFFWFSSFFL | 0.471 ± 0.028 | 0.561 ± 0.018 | 0.4 ± 0.021 | 0.5337 ± 0.0052 | 0.401 ± 0.0067 | 0.389 ± 0.019 | 0.505 ± 0.012 | 0.493 ± 0.015
LEGLLIRVYITF | 0.105 ± 0.034 | 0.234 ± 0.021 | 0.178 ± 0.019 | 0.3361 ± 0.00094 | 0.151 ± 0.017 | 0.173 ± 0.02 | 0.305 ± 0.0093 | 0.288 ± 0.014
LCLICLFLLKVL | 0.477 ± 0.049 | 0.548 ± 0.048 | 0.395 ± 0.03 | 0.586 ± 0.0076 | 0.18 ± 0.018 | 0.201 ± 0.032 | 0.299 ± 0.017 | 0.337 ± 0.022
RRVRVVCVIVAA | 0.286 ± 0.0078 | 0.373 ± 0.009 | 0.238 ± 0.041 | 0.4735 ± 0.0028 | 0.189 ± 0.0071 | 0.221 ± 0.03 | 0.443 ± 0.025 | 0.373 ± 0.071
VFLYVYAVWFLV | 0.156 ± 0.027 | 0.228 ± 0.0084 | 0.198 ± 0.042 | 0.321 ± 0.0075 | 0.1102 ± 0.00096 | 0.119 ± 0.053 | 0.118 ± 0.023 | 0.164 ± 0.025
RGGVLYVSIRCK | 0.282 ± 0.019 | 0.335 ± 0.0034 | 0.228 ± 0.032 | 0.397 ± 0.0054 | 0.186 ± 0.015 | 0.233 ± 0.037 | 0.386 ± 0.023 | 0.341 ± 0.053
PLRKYLRHLLSL | 0.59822 ± 0.00032 | 0.7453 ± 0.0022 | 0.647 ± 0.022 | 0.735 ± 0.036 | 0.1635 ± 0.0013 | 0.159 ± 0.012 | 0.285 ± 0.0041 | 0.218 ± 0.055
AFLWSLFVFFRF | 0.254 ± 0.056 | 0.183 ± 0.0084 | 0.31 ± 0.035 | 0.355 ± 0.0011 | 0.421 ± 0.017 | 0.269 ± 0.042 | 0.363 ± 0.018 | 0.393 ± 0.085
FLLYVITYRSET | 0.151 ± 0.0098 | 0.304 ± 0.046 | 0.21 ± 0.03 | 0.442 ± 0.047 | 0.161 ± 0.0042 | 0.225 ± 0.025 | 0.378 ± 0.038 | 0.335 ± 0.046
GQSRLVADLRQV | 0.635 ± 0.055 | 0.6934 ± 0.0012 | 0.646 ± 0.012 | 0.678 ± 0.018 | 0.676 ± 0.035 | 0.676 ± 0.0081 | 0.675 ± 0.025 | 0.7147 ± 0.00089
PPPAPPLSMPAP | 0.647 ± 0.064 | 0.73 ± 0.027 | 0.665 ± 0.014 | 0.718 ± 0.026 | 0.671 ± 0.021 | 0.681 ± 0.022 | 0.6928 ± 0.0055 | 0.0173 ± 0.0038
KLKDLTRIKIFR | 0.681 ± 0.0063 | 0.714 ± 0.033 | 0.666 ± 0.031 | 0.6989 ± 0.0069 | 0.6428 ± 0.002 | 0.6737 ± 0.0056 | 0.701 ± 0.011 | 0.722 ± 0.019
FGPVLLVSFLFS | 0.273 ± 0.024 | 0.386 ± 0.033 | 0.242 ± 0.031 | 0.422 ± 0.027 | 0.19 ± 0.016 | 0.235 ± 0.054 | 0.4008 ± 0.0017 | 0.35 ± 0.014
VCCYILFFLFPV | 0.401 ± 0.0048 | 0.522 ± 0.008 | 0.349 ± 0.025 | 0.568 ± 0.024 | 0.322 ± 0.0058 | 0.337 ± 0.026 | 0.506 ± 0.018 | 0.418 ± 0.011
RGAVLLPSLWVV | 0.659 ± 0.025 | 0.7044 ± 0.0028 | 0.577 ± 0.027 | 0.7355 ± 0.0068 | 0.356 ± 0.033 | 0.381 ± 0.022 | 0.551 ± 0.0061 | 0.483 ± 0.061
AGAFRIVWWALR | 0.652 ± 0.034 | 0.6935 ± 0.00096 | 0.578 ± 0.027 | 0.711 ± 0.0098 | 0.586 ± 0.02 | 0.578 ± 0.015 | 0.68 ± 0.014 | 0.528 ± 0.073
LFLVLFCVVGFV | 0.234 ± 0.036 | 0.311 ± 0.031 | 0.226 ± 0.027 | 0.377 ± 0.0076 | 0.222 ± 0.0075 | 0.219 ± 0.02 | 0.337 ± 0.011 | 0.282 ± 0.0047
PLPCFVLRLPVF | 0.39 ± 0.037 | 0.429 ± 0.033 | 0.298 ± 0.031 | 0.465 ± 0.0064 | 0.267 ± 0.011 | 0.304 ± 0.024 | 0.4379 ± 0.0024 | 0.402 ± 0.02
